The results in this text go back to the supplement of paper PMC12042874.

± gives the uncertainty stated by the source.

The data set in a line: amyloid nucleation score (Sup35N fusion, yeast selection) (log enrichment); library NNK2; higher = more nucleation; inactive = no reads after selection. The method, boiled down: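 DiMSum was used to calculate nucleation scores as log enrichment of output over input reads, centred on the mode score of non-aggregating sequences. Sequences with fewer than 100 input reads were not scored. Input and output came from Illumina sequencing of plasmid inserts in psi-negative yeast expressing peptides of 20 random codons fused to Sup35N, induced 24 hours with 100 μM copper sulfate and then grown 7 days at 30°C on medium lacking adenine and uracil.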
APWYIL showed an amyloid nucleation score of 0.225 ± 0.36.

Take AQLVGVCFRRFCQLSTSLCY: the amyloid nucleation score is -1.18 ± 0.64. As to AQNKNWQSFRMFPVVLAMVG, the amyloid nucleation score is 0.178 ± 0.77. In the case of AQVEFLYNSLVHYFSIDNTG, the amyloid nucleation score entry was “inactive”. Turning to ARDCYEDDHKSKSARTVEHT, the amyloid nucleation score was determined as 0.232 ± 0.31. For ARFSVILNSIYRFSYLCRRL the value was “inactive”; for ARKKALGGNNLEVVLFLFSC, 4.93 ± 0.098; for ARLAPRSLPCKWSPVAEKQR, -0.098 ± 0.79. In the case of ARLRC it was 0.001 ± 0.28. For ARMIVCPTVFAIPWYNNSFI the value was -1.47 ± 0.78; for ARPVDMHTQTYALL, -0.284 ± 1.1. For the substance ARRCSFWYIISVQRF, the amyloid nucleation score entry was “inactive”.

In turn, ARRIVMWVYECGTYCWRRTT gave an amyloid nucleation score of 0.216 ± 0.43. As for ARSTAFMPEPSFLV, the amyloid nucleation score amounted to 0.054 ± 0.56. In turn, ARTICTFRHMSGIGAMGLDC came in with an amyloid nucleation score of 0.289 ± 0.8. The substance ARVCPCETTSTTVVA gave an amyloid nucleation score of 1.23 ± 0.48.

Turning to ASAPEYHQVKIYIFQFTPRA, the amyloid nucleation score was 2.02 ± 0.094. ASCMS gave an amyloid nucleation score of -0.056 ± 0.32. With ASCWTVGQLTHVSVSMWGFI, the amyloid nucleation score was 0.943 ± 0.53. For the substance ASGEVMYVNHYVFPQAFTDE, the amyloid nucleation score entry is “inactive”. In the case of ASLALYRITRVGICYIRRLR it was -0.839 ± 0.78. For ASMLWLLLDELLKWNDGVNN the value was 2.04 ± 0.099; for ASQAHSEIMLVVTMNALHQP, 7.57 ± 0.076.

In the case of ASRWHLIAESLSLSAVLNSF, the amyloid nucleation score entry was “inactive”. For ASVLWHFLPSGGARFVCSER the value was 0.538 ± 0.5; for ATSTITNYGLPNRPCVSYMF, -0.043 ± 0.32. Take ATTVNK: the amyloid nucleation score is 5.76 ± 0.061. ATTYAYTGAQLTWFRWMVVQ registered an amyloid nucleation score of 0.832 ± 0.31. In the case of ATVYMLHALVSDGCQLGD it was 0.399 ± 0.31; in that of ATYFWMQSVP, 0.903 ± 0.74; in that of AVINPPKHVVCCFD, -0.189 ± 0.23. AVLCWLCLLGGLNINFEECG showed an amyloid nucleation score of 4.11 ± 0.045.

As to AVRLSEV, the amyloid nucleation score is 0.421 ± 0.38.

For AVTIMCPAGLTMANSLVFKQ, the amyloid nucleation score was 5.18 ± 0.07. For AVVLLLRTAGVVIGHLVLRH the value was -0.016 ± 0.29; for AVWVRLTFDYWGRCTILGTV, “inactive”; for AVYFYRALDVVMCAFVRKGE, 6.01 ± 0.068.

Take AVYSGHSYVKMSWVSGGRYW: the amyloid nucleation score stood at 0.747 ± 0.43. In the case of AWENYYSGLVNLLAASACIV it was -0.163 ± 0.79; in that of AWFVYYVYRMFLNVSTSYWK, 0.074 ± 0.74; in that of AYGQKNVSSRSLTFV, 3.41 ± 0.15. In the case of AYSVRLDLSCDQRCSF it was 4.366 ± 0.041. On to AYYYTVLYYSFNMFRFVYTW, for which the amyloid nucleation score entry was “inactive”. For CADAITRHAGTFVAGWSW the value was 0.865 ± 0.17; for CAGGFGLKPAFVYEFWCKSI, -1.17 ± 1; for CAGYMRRHFSAAVTWTWAEG, 1.22 ± 0.69.

Consider CAMVKFY, for which the amyloid nucleation score was -1.3 ± 0.62. In the case of CANIMMKSKVYKFNERRSVK it was -0.873 ± 0.62; in that of CANYSDARITFTYNSYKICV, 1.09 ± 0.2; in that of CARIWLRTWGKIRA, 0.092 ± 1.1. In the case of CAVRF it was 0.498 ± 0.64; in that of CAVRWVGVS, 1.12 ± 0.23. With CAVVKAILSCMFTLSSSCLH, the amyloid nucleation score was determined as 0.441 ± 0.49. In the case of CCELAPWFFTI, the amyloid nucleation score came out at 0.068 ± 0.32.

In turn, CCPEHRNRAGNNDFWSARTQ gave an amyloid nucleation score of 0.392 ± 0.57. As to CCSISTDLCDKYFVTFCLLS, the amyloid nucleation score result was “inactive”. CCWVDLGLKRMYESLFDR displayed an amyloid nucleation score of 4.14 ± 0.051. As to CDKDMRILHMYGLEASEGVY, the amyloid nucleation score stood at 0.526 ± 0.26.

Turning to CDSARFEGNVEAAR, the amyloid nucleation score is -0.134 ± 0.34. CEALQSW came in with an amyloid nucleation score of 0.699 ± 0.34. On to CEIHYIIRQRSPVLSNRVQR, for which the amyloid nucleation score entry was “inactive”. For CERLDCSQKDSGCYWRRHGI the value was 0.471 ± 0.62; for CESWMGAKTITLELTGGDSE, 0.664 ± 0.38; for CETLSGMRGLCRKKTDVPDI, -0.036 ± 0.63. For CFCKKCWVDSLLRRRVNNFH the value was -0.737 ± 1.1; for CFCLWGLDDLVLGLGSTMRF, 3.16 ± 0.057; for CFKMIFDQGSPKMRMHHIGV, 0.234 ± 0.54. Regarding CFLDGYWPGGELMKIGDYAL, the amyloid nucleation score turned out to be 0.248 ± 0.28.

The substance CFLESGSLMLYEV returned an amyloid nucleation score of -0.081 ± 1.1. The substance CFNGLDLLILSTKMVSLLWY had an amyloid nucleation score of -0.492 ± 1.1.

CFQSRYLTRSGLKVWHTKGD: the amyloid nucleation score was determined as 0.631 ± 0.37. The substance CFTPFMLFCKDEV had an amyloid nucleation score of -1.12 ± 0.55. For CFTSWMRPRKSYLTDNRCIN the value was -0.55 ± 0.79; for CFYSNWKQGYDICHVSGDRF, -0.956 ± 0.78; for CGDQSVFERYETRRNLGL, 0.21 ± 0.63. Substance CGKLSLLNQVWIVSQPMPGQ had an amyloid nucleation score of 7.57 ± 0.064. In turn, CGKYSS had an amyloid nucleation score of 7.602 ± 0.041. As to CGLCMEGYSHEMIDRLSSIS, the amyloid nucleation score stood at 0.227 ± 0.56. Turning to CGLVAVNDYLGVRVGLFHIC, the amyloid nucleation score is -1.01 ± 1.1.

The substance CGMCKF registered an amyloid nucleation score of -0.487 ± 0.29.

In turn, CGSSMEYVGPLVYSAGAAEV registered an amyloid nucleation score of -0.097 ± 1.1. For the substance CGTLINADRPAWH, the amyloid nucleation score is -0.593 ± 0.35. For CGVIKHPLSGYYKRASMLCN the value was -1.52 ± 1.1; for CGVMKNYDESKTYGLGLG, 3.51 ± 0.1; for CHACLWRETRVRTCVSAEHH, 1.65 ± 0.35.

In turn, CHKVWSKEDWATVWSVGGLV showed an amyloid nucleation score of -0.02 ± 1.1. Substance CHRLDWINYLCGSHKAIMIV yielded an amyloid nucleation score of -0.472 ± 0.5. Take CHRNFITCLYAMYSELVLVL: the amyloid nucleation score came to 0.648 ± 0.54. With CHSLGVRF, the amyloid nucleation score was determined as 3.17 ± 0.093.

In the case of CINRVRG, the amyloid nucleation score was -0.398 ± 0.76. Substance CIPRRGY yielded an amyloid nucleation score of 0.713 ± 0.74.

CIRFVVMNIYGAASDKSMVG: the amyloid nucleation score was 7.422 ± 0.036. For CIRMLSVIYHCPL the value was 4.85 ± 0.07.

For CIRMNRISLGNSICWCAPNM, the amyloid nucleation score turned out to be 7.922 ± 0.047. In the case of CIRVGSQNVMFPIDSEPSDL it was 0.482 ± 0.46. As to CISMDLIVLNSFMGKPLPPP, the amyloid nucleation score was determined as 5.39 ± 0.057.

Consider CITFS, for which the amyloid nucleation score was -0.817 ± 0.46. CKLWECTLLVGWGNLLRVRG registered an amyloid nucleation score of -0.276 ± 0.76. For CKMYVET the value was 0.23 ± 0.38; for CKPAVPMLN, 2.49 ± 0.076; for CKWEFKWPYWGDYLVFMCK, -0.679 ± 1.1. The substance CKYVYFRPTRASSSWHVIFL came in with an amyloid nucleation score of 2.93 ± 0.076.

Regarding CLAASSGVLYNEVQSYNTLV, the amyloid nucleation score result was “inactive”. Substance CLCGTFVSVSPIGYRGQWGG yielded an amyloid nucleation score of -0.467 ± 0.76.

Regarding CLFVQSRIDYALNNLTVC, the amyloid nucleation score was -0.755 ± 0.48. As to CLFWG, the amyloid nucleation score came to 2.85 ± 0.11. The substance CLKSISTRNR displayed an amyloid nucleation score of -0.932 ± 0.76. For CLLGMYIVTDTARMTVCVGL the value was 0.444 ± 0.49; for CLNWRSLSS, 3.34 ± 0.067.

As to CLRVVCLRGLFYYANSACQV, the amyloid nucleation score was -0.199 ± 0.54. In turn, CLRYGISRWLRLFRINNVVE gave an amyloid nucleation score of 0.046 ± 0.34. In the case of CLTSFEES it was -0.155 ± 0.65; in that of CLTTGNLWEVTAGIESVRWI, 0.202 ± 0.5; in that of CLYARHFVNCNGYATGTLMD, -0.163 ± 0.61. For the substance CLYYEPVSL, the amyloid nucleation score was -0.263 ± 1.1. On to CMEKFTLELTVIIRHSNQLG, for which the amyloid nucleation score is 0.225 ± 0.31. In the case of CMFVILMYLHQGRKLNAVPS it was -1.02 ± 1.1. With CMFVIVKVCIVHGHIVSIAS, the amyloid nucleation score entry was “inactive”.

For the substance CMSTDTTLVATMMLQTESA, the amyloid nucleation score amounted to 0.441 ± 0.23. Consider CMVMGNERM, for which the amyloid nucleation score is -0.011 ± 0.22.

As to CMVRLKPDFITALRLSLRGR, the amyloid nucleation score result was “inactive”. In turn, CNGRVKAYVSQNYVSEYGVL displayed an amyloid nucleation score of -0.1 ± 0.2. On to CNGYRKVHCLMTMSRWTYGR, for which the amyloid nucleation score was found to be 1.08 ± 0.1. CNGYTKRRYTRYSYKWFAVA: the amyloid nucleation score was -0.15 ± 0.45. With CNHIRSKVKVVVCTGHCAVF, the amyloid nucleation score came to 4.62 ± 0.11. For CNMGLRYTSYLI the value was -0.212 ± 0.34; for CNSHM, 2.9 ± 0.072. In the case of CPCNGTNSLRLAYGYTGNNS it was “inactive”; in that of CPFSYEPNFPLIGRGNFAIW, -0.987 ± 1; in that of CPIRMLSKNGCSTHSFNMAW, 0.241 ± 0.8. With CPLPIVSFKTLINLNMMYKS, the amyloid nucleation score is -0.269 ± 0.43. In turn, CPNLNTFTLFPELGNLYLHR registered an amyloid nucleation score of 0.329 ± 0.8.

CQLLMFGSMYVHSYERGTYW showed an amyloid nucleation score of 2.67 ± 0.064.

In the case of CQMYWYFWPGVTRFAR, the amyloid nucleation score came to 8.633 ± 0.03. For the substance CQTHPYYVICFQAVKKCWES, the amyloid nucleation score is -0.899 ± 0.56. CRCVR yielded an amyloid nucleation score of 3.38 ± 0.077. With CRDLKFYAGTRWGKCCMYSA, the amyloid nucleation score is -0.476 ± 0.32. In the case of CREEDGLLDVSYKRSDMGGS it was -0.267 ± 0.65. For CRFRGLRYNRWDQNDVFAGV the value was 0.349 ± 0.44.
